# Test results: patent publication US20150329642A1 (Genmab, published 2015)
# Where a chain is given by its changes, count along the chain named. Names and notes keep the numbering of the source.
# B1: UniBody molecule of antibody 008 (other)
# VH: EVQLVQSGAEVKKPGESLKISCKGSGYSFTSYWIGWVRQMPGKGLEWMGIIYPGDSETRYSPSFQGQVTISADKSISTAYLQWSSLKASDTAMYYCARQEITGEFDYWGQGTLVTVSS
# VL: AIQLTQSPSSLSASVGDRVTITCRASQGISSALAWYQQKPGKAPKLLIYDASSLESGVPSRFSGSGSGTDFTLTISSLQPEDFATYYCQQFNSYPRTFGQGTKVEIK
# B2: UniBody molecule of antibody 024 (other)
# VH: EVQLLESGGGLVQPGGSLRLSCVASGFTFSSYAMSWVRQAPGKGLEWVSAISGSSGGSTYYVDSVKGRFTISRANSKNTLYLQMNSLRAEDTAVYYCAKDLDRGWMGYFGYWGQGTLVTVSS
# VL: DIQMTQSPSSVSASVGDRVTITCRASQGISSWLAWYQHKPGKAPKLLIYAASSLQSGVPSRFSGSGSGTDFTLTISSLQPEDFATYYCQQANSFPTFGQGTRLEIK
# B3: UniBody molecule of antibody 035 (other)
# VH: B1 VH with E57D, S84N
# VL: AIQLTQSPSSLSASVGDRVTITCRASQGISSALAWYQQKPGKAPKLLIYDASSLESGVPSRFSGSGSGTDFTLTISSLQPEDFATYYCQQFNSYPMYTFGQGTKLEIK
# B4: Uni-1016-045-TE (other)
# VH: EVQLLESGGGLVQPGGSLRLSCAASGFTFSSYAMSWVRQAPGKGLEWVSVISGSGGITYYADSVKGRFTISRDNSKNTLYLQMNSLRAEDTAVYYCARDRGWGSDYWGQGTLVTVSS
# VL: EIVLTQSPATLSLSPGERATLSCRASQSVSSYLAWYQQKPGQAPRLLIYDASNRATGIPARFSGSGSGTDFTLTISSLEPEDFAVYYCQQRSNWPFTFGPGTKVDIK
# notes: also called UniBody molecule of antibody 045
# B5: Uni-1016-069-TE (other)
# VH: QVQLVQSGAEVKKPGASVKVSCETSGYTFTSYGISWVRQAPGHGLEWMGWISAYNGYTNYAQKLQGRVTMTTDTSTSTAYMELRSLRSDDTAVYYCARDLRGTNYFDYWGQGTLVTVSS
# VL: DIQMTQSPSSVSASVGDRVTITCRASQGISNWLAWFQHKPGKAPKLLIYAASSLLSGVPSRFSGSGSGTDFTLTISSLQPEDFATYYCQQANSFPITFGQGTRLEIK
# notes: also called UniBody molecule of antibody 069
# B6: UniBody molecule of antibody 181 (other)
# VH: B5 VH with E23K, T24A, H43Q, A53T, N104A
# VL: B5 VL with F36Y
# B7: UniBody molecule of antibody 098 (other)
# VH: QVQLVQSGAEVKKPGASVKVSCKASGYTFTNFGISWVRQAPGQGLEWMGWISAFNGHTDYSQKVQGRVTMTTDTSTSTAYMELRSLRSDDTAVFYCARSHYYGSGSPFDYWGQGTLVTVSS
# VL: DIQMTQSPSSLSASVGDRVTITCRASQGISNWLAWYQQKPEKAPKSLIYAASSLQSGVPSRFSGSGSGTDFTLTISSLQPEDFATYYCHQYKSYPWTFGQGTKVEIK
# B8: Uni-1016-005 (other)
# VH: QVQLVQSGAEVKKPGSSVKVSCKASGGTFSSYGFGWVRQAPGQGLEWMGRISPILGIANYAQMFQGRVTITADKSTSTAYMELSSLRSEDTAVYYCARDVGYDWPDTFDIWGQGTMVIVSS
# VL: B7 VL with N31S, S65G, H89Q, K92N, Y94F, W96P
# notes: also called UniBody molecule of antibody 005
# B9: IgG1-1016-069-ΔC220 (antibody, V domains shown)
# VH: B5 VH
# VL: B5 VL
# notes: human kappa; also called IgG1 ΔC220 mutant of 069
# B10: IgG1-1016-069-C220S (antibody, V domains shown)
# VH: B5 VH
# VL: B5 VL
# notes: human kappa; also called IgG1 C220S mutant of 069
# B11: IgG1-1016-069-Hinge IgG2 (antibody, V domains shown)
# VH: B5 VH
# VL: B5 VL
# notes: human kappa; also called IgG1 Hinge-IgG2 variant of 069
# B12: IgG2-1016-069 (antibody, V domains shown)
# VH: B5 VH
# VL: B5 VL
# notes: IgG2 format of clone 069; also called IgG2 backbone variant of 069
# B13: IgG1-1016-069 TH7Δ6-9 (antibody, V domains shown)
# VH: B5 VH
# VL: B5 VL
# notes: human kappa; also called IgG1 TH7Δ6-9 mutant of 069
# B14: IgG1-1016-069-Hinge IgG3 (antibody, V domains shown)
# VH: B5 VH
# VL: B5 VL
# notes: also called IgG1 Hinge-IgG3 variant of 069
# B15: Uni-IgG1-1016-069 (antibody, V domains shown)
# VH: B5 VH
# VL: B5 VL
# notes: human kappa; also called Hinge deleted IgG1 (Uni-IgG1) of 069; UniBody-IgG1
# Molecular target: T1, human c-Met, membrane-bound on cells (human, UniProt P08581 25-1390)
# T1 construct: whole, on cells; A431 cells carry on average 30,000 copies of c-Met per cell (Qifi); also called c-Met expressed on A431 cells; c-Met on A549 cells
# T1 sequence (P08581 25-1390): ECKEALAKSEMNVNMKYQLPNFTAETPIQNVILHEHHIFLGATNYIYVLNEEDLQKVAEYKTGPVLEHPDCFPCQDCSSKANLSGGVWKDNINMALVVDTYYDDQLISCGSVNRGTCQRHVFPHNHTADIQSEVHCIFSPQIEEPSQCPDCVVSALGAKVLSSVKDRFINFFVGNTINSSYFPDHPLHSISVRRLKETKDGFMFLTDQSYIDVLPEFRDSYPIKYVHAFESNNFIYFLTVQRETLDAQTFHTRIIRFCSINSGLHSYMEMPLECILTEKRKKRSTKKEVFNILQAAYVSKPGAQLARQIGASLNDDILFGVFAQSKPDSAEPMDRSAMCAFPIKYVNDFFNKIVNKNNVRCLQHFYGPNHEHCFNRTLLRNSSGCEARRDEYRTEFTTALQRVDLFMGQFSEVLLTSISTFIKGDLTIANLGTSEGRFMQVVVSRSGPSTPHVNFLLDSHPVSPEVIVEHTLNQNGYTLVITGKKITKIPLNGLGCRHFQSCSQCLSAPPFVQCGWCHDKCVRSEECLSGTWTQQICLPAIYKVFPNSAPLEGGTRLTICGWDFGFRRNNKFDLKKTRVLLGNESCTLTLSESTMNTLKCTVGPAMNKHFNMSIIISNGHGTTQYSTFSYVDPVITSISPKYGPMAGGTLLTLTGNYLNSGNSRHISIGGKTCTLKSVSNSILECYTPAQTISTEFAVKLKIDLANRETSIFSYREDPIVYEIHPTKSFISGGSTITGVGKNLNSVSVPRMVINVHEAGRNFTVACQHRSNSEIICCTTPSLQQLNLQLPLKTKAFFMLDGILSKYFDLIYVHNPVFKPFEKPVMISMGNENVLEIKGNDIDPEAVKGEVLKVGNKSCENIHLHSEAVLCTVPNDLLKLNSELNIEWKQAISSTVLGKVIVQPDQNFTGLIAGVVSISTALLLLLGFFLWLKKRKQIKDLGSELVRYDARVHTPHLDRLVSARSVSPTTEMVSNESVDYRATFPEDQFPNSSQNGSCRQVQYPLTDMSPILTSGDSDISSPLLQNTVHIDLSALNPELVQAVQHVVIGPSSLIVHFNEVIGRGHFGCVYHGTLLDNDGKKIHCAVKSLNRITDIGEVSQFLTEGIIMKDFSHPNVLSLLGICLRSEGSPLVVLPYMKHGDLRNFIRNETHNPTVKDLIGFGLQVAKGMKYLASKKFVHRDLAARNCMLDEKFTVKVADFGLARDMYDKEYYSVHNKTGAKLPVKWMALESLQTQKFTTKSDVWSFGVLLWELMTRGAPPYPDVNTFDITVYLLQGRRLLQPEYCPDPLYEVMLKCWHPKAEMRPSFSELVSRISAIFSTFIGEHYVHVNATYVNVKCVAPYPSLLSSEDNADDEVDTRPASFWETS
# Test: flow cytometry on A431 cells
# Method: (§1) The binding of anti-c-Met antibodies and monovalent forms thereof (also termed “UniBody molecules” herein, see Example 5) to A431 cells expressing membrane-bound c-Met (purchased at ATCC, CRL-1555) was tested using flow cytometry (FACS Canto II, BD Biosciences). […] Binding of anti-c-Met antibodies and UniBody molecules was detected using a Phycoerythrin-conjugated goat-anti-human IgG antibody (Jackson). IgG1-5D5 was used as positive control antibody, and HuMab-KLH was used as isotype control antibody. EC₅₀ values were determined by means of non-linear regression (sigmoidal dose-response with variable slope) using GraphPad Prism V4.03 software (GraphPad Software, San Diego, Calif., USA).
# (§2) Also maximum binding levels were unchanged between IgG1's and UniBody molecules. For antibodies 005, 006, 008, 035, 045 and 058, on the other hand, a more than 2-fold […] as well as a decrease in maximum binding level was observed when comparing IgG1 with their UniBody counterpart. This was most likely due to the […] (Kd) of these antibodies (see Example 14).
row,Binder,"fold change of EC50, UniBody molecule against IgG1 of the identical clone"
1,B1,> 2 fold
2,B2,< 2 fold
3,B3,> 2 fold
4,B4,> 2 fold
5,B5,< 2 fold
6,B6,< 2 fold
7,B7,< 2 fold
8,B8,> 2 fold

# Molecular target: T2, rhHGF R/Fc Chimera (R&D Systems; Cat.358MT/CF) (human, UniProt P08581 25-932)
# T2 construct: Bought reagent; Fc part of the bought chimera not given; not described
# T2 sequence (P08581 25-932, change not shown): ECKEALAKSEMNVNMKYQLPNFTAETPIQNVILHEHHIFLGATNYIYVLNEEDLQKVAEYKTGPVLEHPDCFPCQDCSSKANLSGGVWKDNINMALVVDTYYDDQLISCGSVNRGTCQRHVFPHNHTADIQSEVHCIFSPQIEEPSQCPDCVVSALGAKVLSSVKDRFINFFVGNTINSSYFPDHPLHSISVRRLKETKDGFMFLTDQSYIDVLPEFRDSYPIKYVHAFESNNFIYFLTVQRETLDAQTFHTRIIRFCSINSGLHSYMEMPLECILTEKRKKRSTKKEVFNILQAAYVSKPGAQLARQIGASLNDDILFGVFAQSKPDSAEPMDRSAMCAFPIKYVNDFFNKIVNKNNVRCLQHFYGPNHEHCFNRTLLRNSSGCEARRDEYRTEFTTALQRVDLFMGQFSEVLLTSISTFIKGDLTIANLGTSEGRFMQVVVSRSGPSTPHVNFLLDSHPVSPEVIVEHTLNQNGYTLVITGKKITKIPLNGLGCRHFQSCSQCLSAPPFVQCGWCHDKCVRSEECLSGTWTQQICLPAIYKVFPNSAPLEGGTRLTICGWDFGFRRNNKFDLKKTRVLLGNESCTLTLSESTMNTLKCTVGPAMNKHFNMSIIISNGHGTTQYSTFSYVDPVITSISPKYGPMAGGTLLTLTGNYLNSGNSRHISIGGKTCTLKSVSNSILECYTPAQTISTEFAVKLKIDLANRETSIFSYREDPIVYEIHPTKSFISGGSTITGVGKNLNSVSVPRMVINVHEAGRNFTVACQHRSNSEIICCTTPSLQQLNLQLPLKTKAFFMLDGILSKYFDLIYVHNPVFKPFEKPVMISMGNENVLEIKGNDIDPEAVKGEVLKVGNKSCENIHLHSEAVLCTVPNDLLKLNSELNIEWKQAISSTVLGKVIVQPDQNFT
# Test: ELISA on coated rhHGF R/Fc Chimera
# Method: c-Met binding properties of the mutants were tested in an ELISA. ELISA plate wells were coated overnight at 4° C. with rhHGF R/Fc Chimera (R&D Systems; Cat.358MT/CF) in PBS (1 μg/mL). Next, the wells were washed with PBST (PBS supplemented with 0.05% Tween-20 [Sigma-Aldrich, Zwijndrecht, The Netherlands]) and blocked for one hour at room temperature (RT) with PBSTC (PBST supplemented 2% [v/v] chicken serum [Gibco, Paisley, Scotland]). Subsequently, the wells were washed with PBST and incubated for one hour at RT with the anti-cMet antibodies and variants serially diluted in PBSTC (10 μg/mL in 4-fold dilutions). […] After washing, the reaction was visualized by a 15 min incubation with 2,2′-azino-bis(3-ethylbenzothiazoline-6-sulfonic acid) (ABTS: dilute one ABTS tablet in 50 mL ABTS buffer [Roche Diagnostics, Almere, The Netherlands]) at RT protected from light. The colorization was stopped by adding an equal volume of oxalic acid (Sigma-Aldrich, Zwijndrecht, The Netherlands). […] at 405 nm was measured on a microtiter plate reader (Biotek Instruments, Winooski, USA).
row,Binder,EC50
1,B5,0.0301 µg/mL
2,B9,0.0189 µg/mL
3,B10,0.0156 µg/mL
4,B11,0.023 µg/mL
5,B12,0.0296 µg/mL
6,B13,0.0188 µg/mL
7,B14,0.0142 µg/mL
8,B15,0.0154 µg/mL

# Molecular target: T1, human c-Met, membrane-bound on cells
# Test: flow cytometry on A431 cells (PE goat anti-human IgG); bottom panel
# Method: as §1, §2
row,Binder,EC50
1,B5,0.6 nM
2,B6,0.847 nM
3,B7,1.16 nM

# Molecular target: T1, human c-Met, membrane-bound on cells
# Test: flow cytometry on A431 cells (PE goat anti-human IgG); second panel
# Method: as §1, §2
row,Binder,EC50
1,B1,1.85 nM
2,B8,5.8 nM

# Molecular target: T1, human c-Met, membrane-bound on cells
# Test: flow cytometry on A431 cells (PE goat anti-human IgG); third panel
# Method: as §1, §2
row,Binder,EC50
1,B2,2.42 nM
2,B3,9.32 nM
3,B4,12.2 nM
